Stoichiometry N data for one substance are collected here from doi:10.1101/2020.07.07.187567.

The target of this experiment is LhgR, L-2-HG catabolism regulator of Pseudomonas putida W619 (His6-tagged) (Pseudomonas putida W619). Nature of the experiment: SEC.

The substance “LhgR, L-2-HG catabolism regulator of Pseudomonas putida W619 (His6-tagged) (natural protein)” came in with a stoichiometry N of 2.
